Test results published in paper PMC9482650, “Quantitative fragmentomics allow affinity mapping of interactomes” (Nature Communications, 2022).

Experiments:
Experiment in all cases: holdup assay
Set-up in all cases: key: below the threshold = too weak to quantify, mostly under pKd 3.1 to 4
[1] = target: SCRIB_1, Q14160
[2] = target: LIMK2, P53671
[3] = target: T1, CARD11, Q9BXL7
T1 sequence (Q9BXL7 662-765, limits assumed, looked up): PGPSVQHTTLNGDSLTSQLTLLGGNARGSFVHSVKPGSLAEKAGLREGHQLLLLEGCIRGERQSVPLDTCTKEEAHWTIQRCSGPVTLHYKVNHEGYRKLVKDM

[4] = target: LDB3, O75112
LDB3, O75112, sequence (O75112 1-94): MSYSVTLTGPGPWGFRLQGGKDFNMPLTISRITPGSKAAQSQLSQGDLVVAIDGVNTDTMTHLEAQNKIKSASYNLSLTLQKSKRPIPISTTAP

[5] = target: NHERF4_1, Q86UT5-2
NHERF4_1, Q86UT5-2, sequence (Q86UT5 other isoform, or with tags, fused parts or gaps): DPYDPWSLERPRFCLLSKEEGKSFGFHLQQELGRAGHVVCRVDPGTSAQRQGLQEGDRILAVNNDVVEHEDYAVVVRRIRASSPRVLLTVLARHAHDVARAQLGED

[6] = target: PTPN3, P26045
PTPN3, P26045, sequence (P26045 505-587): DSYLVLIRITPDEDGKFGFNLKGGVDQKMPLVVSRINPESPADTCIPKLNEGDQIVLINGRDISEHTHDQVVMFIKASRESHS

[7] = target: T2, RADIL, Q96JH8
T2 sequence (Q96JH8 971-1071, limits assumed, looked up): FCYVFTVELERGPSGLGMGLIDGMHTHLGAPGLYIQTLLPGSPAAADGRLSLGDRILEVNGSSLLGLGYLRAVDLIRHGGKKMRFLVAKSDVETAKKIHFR

[8] = target: MAGI2_6, Q86UL8
MAGI2_6, Q86UL8, sequence (Q86UL8 1141-1229): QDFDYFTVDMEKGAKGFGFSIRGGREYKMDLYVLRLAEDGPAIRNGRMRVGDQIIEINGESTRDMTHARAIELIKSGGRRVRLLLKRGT

[9] = target: FRMPD3, Q5JV73
FRMPD3, Q5JV73, sequence (Q5JV73 12-100): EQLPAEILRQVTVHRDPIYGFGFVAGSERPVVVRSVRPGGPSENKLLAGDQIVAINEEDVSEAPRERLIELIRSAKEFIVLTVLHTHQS

[10] = target: T3, LIN7A, O14910
T3 sequence (O14910 103-200, limits assumed, looked up): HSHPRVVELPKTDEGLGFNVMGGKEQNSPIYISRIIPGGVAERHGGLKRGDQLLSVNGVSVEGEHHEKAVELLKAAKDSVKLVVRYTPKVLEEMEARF

[11] = target: Inadl_3, Q8NI35
Inadl_3, Q8NI35, sequence (Q8NI35 359-469): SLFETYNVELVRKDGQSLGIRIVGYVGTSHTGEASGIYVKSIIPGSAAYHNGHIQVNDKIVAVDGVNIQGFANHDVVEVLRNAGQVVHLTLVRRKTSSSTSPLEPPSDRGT

[12] = target: SNX27, Q96L92
[13] = target: T4, PARD3B_1, Q8TEW8
T4 sequence (Q8TEW8 196-299, limits assumed, looked up): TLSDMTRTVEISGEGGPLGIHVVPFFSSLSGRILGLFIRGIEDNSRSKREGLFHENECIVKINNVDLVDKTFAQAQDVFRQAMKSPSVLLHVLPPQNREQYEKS

[14] = target: Inadl_8, Q8NI35
Inadl_8, Q8NI35, sequence (Q8NI35 1425-1530): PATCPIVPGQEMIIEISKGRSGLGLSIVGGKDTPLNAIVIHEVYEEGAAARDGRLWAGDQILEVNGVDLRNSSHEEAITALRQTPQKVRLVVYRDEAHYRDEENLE

[15] = target: T5, MPP2, Q14168
T5 sequence (Q14168 180-250, limits assumed, looked up): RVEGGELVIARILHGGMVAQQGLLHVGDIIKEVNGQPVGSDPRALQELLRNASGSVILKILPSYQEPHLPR

[16] = target: GRASP, Q7Z6J2
GRASP, Q7Z6J2, sequence (Q7Z6J2 96-193): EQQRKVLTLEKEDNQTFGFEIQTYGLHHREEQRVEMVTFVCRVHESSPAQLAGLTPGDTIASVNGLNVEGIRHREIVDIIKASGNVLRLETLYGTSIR

[17] = target: DLG2_2, Q15700
DLG2_2, Q15700, sequence (Q15700 189-283): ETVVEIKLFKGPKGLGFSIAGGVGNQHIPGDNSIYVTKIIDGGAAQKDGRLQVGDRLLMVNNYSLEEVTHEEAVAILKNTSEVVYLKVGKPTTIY

[18] = target: GRIP2_6, Q9C0E4
GRIP2_6, Q9C0E4, sequence (Q9C0E4 648-740): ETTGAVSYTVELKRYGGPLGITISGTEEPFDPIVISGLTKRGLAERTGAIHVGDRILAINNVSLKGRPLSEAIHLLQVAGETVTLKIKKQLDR

[19] = target: T6, PDZRN3_1, Q9UPQ7
T6 sequence (Q9UPQ7 244-349, limits assumed, looked up): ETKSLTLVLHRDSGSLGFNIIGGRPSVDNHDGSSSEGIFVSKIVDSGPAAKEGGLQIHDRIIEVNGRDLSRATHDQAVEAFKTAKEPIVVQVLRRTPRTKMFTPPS

[20] = target: Inadl_10, Q8NI35
Inadl_10, Q8NI35, sequence (Q8NI35 1673-1763): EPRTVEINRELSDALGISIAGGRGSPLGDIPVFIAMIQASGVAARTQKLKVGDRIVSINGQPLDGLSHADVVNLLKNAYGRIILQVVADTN

[21] = target: T7, FRMPD1, Q5SYB0
T7 sequence (Q5SYB0 52-145, limits assumed, looked up): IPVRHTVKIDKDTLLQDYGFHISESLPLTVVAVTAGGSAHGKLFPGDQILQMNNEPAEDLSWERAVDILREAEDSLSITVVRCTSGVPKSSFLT

[22] = target: T8, ARHGAP21, Q5T5U3
T8 sequence (Q5T5U3 45-169, limits assumed, looked up): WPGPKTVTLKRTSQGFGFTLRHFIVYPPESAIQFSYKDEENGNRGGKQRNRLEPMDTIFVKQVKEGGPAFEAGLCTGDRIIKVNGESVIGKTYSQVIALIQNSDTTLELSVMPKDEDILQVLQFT

[23] = target: GIPC2, Q8TF65
GIPC2, Q8TF65, sequence (Q8TF65 112-203): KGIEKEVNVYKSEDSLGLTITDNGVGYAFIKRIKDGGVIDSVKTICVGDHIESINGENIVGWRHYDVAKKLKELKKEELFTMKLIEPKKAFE

[24] = target: DLG4_1, P78352
DLG4_1, P78352, sequence (P78352 62-152): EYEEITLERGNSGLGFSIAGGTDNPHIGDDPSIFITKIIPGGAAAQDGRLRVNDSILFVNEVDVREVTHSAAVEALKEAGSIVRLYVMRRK

[25] = target: MAST2, Q6P0Q8
MAST2, Q6P0Q8, sequence (Q6P0Q8 1099-1202): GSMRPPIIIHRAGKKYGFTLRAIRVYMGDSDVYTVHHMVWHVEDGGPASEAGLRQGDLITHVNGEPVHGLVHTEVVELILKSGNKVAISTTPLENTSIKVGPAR

[26] = target: ARHGEF12, Q9NZN5-2
ARHGEF12, Q9NZN5-2, sequence (Q9NZN5 other isoform, or with tags, fused parts or gaps): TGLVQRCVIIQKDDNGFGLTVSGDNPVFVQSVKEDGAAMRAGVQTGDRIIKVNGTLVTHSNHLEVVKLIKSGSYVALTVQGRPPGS

[27] = target: MAGI2_5, Q86UL8
MAGI2_5, Q86UL8, sequence (Q86UL8 915-1017): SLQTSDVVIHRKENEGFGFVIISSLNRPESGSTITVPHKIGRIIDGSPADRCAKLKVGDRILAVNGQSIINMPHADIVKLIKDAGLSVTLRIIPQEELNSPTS

[28] = target: MAGI1_1, Q96QZ7
MAGI1_1, Q96QZ7, sequence (Q96QZ7 1-106): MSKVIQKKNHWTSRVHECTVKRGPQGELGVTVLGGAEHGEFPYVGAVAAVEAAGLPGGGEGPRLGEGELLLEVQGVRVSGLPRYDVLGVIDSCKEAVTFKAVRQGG

[29] = target: T9, LNX2_3, Q8N448
T9 sequence (Q8N448 463-564, limits assumed, looked up): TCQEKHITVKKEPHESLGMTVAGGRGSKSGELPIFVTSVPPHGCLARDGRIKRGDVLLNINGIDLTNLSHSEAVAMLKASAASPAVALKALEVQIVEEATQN

[30] = plain residues with an end cap or a label only (N-terminal biotin on a linker: ahx)
[31] = plain residues with an end cap or a label only (N-terminal biotin on a linker: ado-ado)

LIMK2, P53671, sequence (P53671 143-248): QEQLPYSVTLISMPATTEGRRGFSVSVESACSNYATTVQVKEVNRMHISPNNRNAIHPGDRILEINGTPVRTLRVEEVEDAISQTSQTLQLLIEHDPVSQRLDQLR
SCRIB_1, Q14160, sequence (Q14160 718-814): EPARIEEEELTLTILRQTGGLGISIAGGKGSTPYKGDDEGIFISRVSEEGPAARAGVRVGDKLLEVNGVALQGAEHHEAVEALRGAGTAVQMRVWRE

B1: ACE2, Q9BYF1 (peptide)
chain: QNTDDVQTSF
B1 was tested, and the pKd [1, 30] was “below the threshold”, the pKd [2, 30] was “below the threshold” and the pKd [3, 30] was “below the threshold”. The pKd [4, 30] was “below the threshold”, the pKd [5, 30] was 3.65 and the pKd [6, 30] was 4.45. For the same binder, the pKd [7, 30] was “below the threshold”, the pKd [8, 30] was “below the threshold” and the pKd [9, 30] was 3.78. The pKd [10, 30] was “below the threshold”, the pKd [11, 30] was 3.66 and the pKd [12, 30] was 4.95. For the same binder, the pKd [13, 30] was 3.82, the pKd [14, 30] was “below the threshold” and the pKd [15, 30] was “below the threshold”. The pKd [16, 30] was 4.29, the pKd [17, 30] was “below the threshold” and the pKd [18, 30] was “below the threshold”. The pKd [19, 30] was “below the threshold”, the pKd [20, 30] was “below the threshold” and the pKd [21, 30] was “below the threshold”. For the same binder, the pKd [22, 30] was 3.64, the pKd [23, 30] was “below the threshold” and the pKd [24, 30] was “below the threshold”. For the same binder, the pKd [25, 30] was 5.13, the pKd [26, 30] was 3.65 and the pKd [27, 30] was 4.21. For the same binder, the pKd [28, 30] was “below the threshold” and the pKd [29, 30] was “below the threshold”.

B2: OR8G1, Q15617 (peptide)
chain: KKMLQRRTLL
B2 was tested, and the pKd [1, 31] was 3.71, the pKd [2, 31] was “below the threshold” and the pKd [3, 31] was “below the threshold”. The pKd [4, 31] was “below the threshold”, the pKd [5, 31] was 4.51 and the pKd [6, 31] was 3.8. For the same binder, the pKd [7, 31] was 3.66, the pKd [8, 31] was “below the threshold” and the pKd [9, 31] was “below the threshold”. For the same binder, the pKd [10, 31] was “below the threshold”, the pKd [11, 31] was “below the threshold” and the pKd [12, 31] was 3.75. The pKd [13, 31] was 4.47, the pKd [14, 31] was 3.55 and the pKd [15, 31] was “below the threshold”. The pKd [16, 31] was 5.05, the pKd [17, 31] was “below the threshold” and the pKd [18, 31] was “below the threshold”. For the same binder, the pKd [19, 31] was 3.6, the pKd [20, 31] was “below the threshold” and the pKd [21, 31] was “below the threshold”. The pKd [22, 31] was “below the threshold”, the pKd [23, 31] was “below the threshold” and the pKd [24, 31] was 3.87. For the same binder, the pKd [25, 31] was 5.13, the pKd [26, 31] was 4.51 and the pKd [27, 31] was 4.59. For the same binder, the pKd [28, 31] was “below the threshold” and the pKd [29, 31] was “below the threshold”.

B3: MYOT, Q9UBF9 (peptide)
chain: QSGLYESEEL
For B3, the pKd [1, 31] was 3.76, the pKd [2, 31] was “below the threshold” and the pKd [3, 31] was “below the threshold”. For the same binder, the pKd [4, 31] was 5.2, the pKd [5, 31] was 4.41 and the pKd [6, 31] was 4.21. For the same binder, the pKd [7, 31] was “below the threshold”, the pKd [8, 31] was 4.24 and the pKd [9, 31] was “below the threshold”. The pKd [10, 31] was “below the threshold”, the pKd [11, 31] was “below the threshold” and the pKd [12, 31] was “below the threshold”. For the same binder, the pKd [13, 31] was 3.86, the pKd [14, 31] was “below the threshold” and the pKd [15, 31] was “below the threshold”. For the same binder, the pKd [16, 31] was 4.09, the pKd [17, 31] was “below the threshold” and the pKd [18, 31] was 4.67. The pKd [19, 31] was “below the threshold”, the pKd [20, 31] was “below the threshold” and the pKd [21, 31] was “below the threshold”. The pKd [22, 31] was “below the threshold”, the pKd [23, 31] was “below the threshold” and the pKd [24, 31] was “below the threshold”. It also gave a pKd [25, 31] of 4.88, a pKd [26, 31] of 3.63 and a pKd [27, 31] of 4.02. For the same binder, the pKd [28, 31] was “below the threshold” and the pKd [29, 31] was “below the threshold”.

B4: PTTG2, Q9NZH5 (peptide)
chain: LPAVCYDIDI
For B4, the pKd [1, 31] was “below the threshold”, the pKd [2, 31] was “below the threshold” and the pKd [3, 31] was “below the threshold”. For the same binder, the pKd [4, 31] was “below the threshold”, the pKd [5, 31] was “below the threshold” and the pKd [6, 31] was 4.22. For the same binder, the pKd [7, 31] was “below the threshold”, the pKd [8, 31] was “below the threshold” and the pKd [9, 31] was “below the threshold”. For the same binder, the pKd [10, 31] was “below the threshold”, the pKd [11, 31] was 4.63 and the pKd [12, 31] was “below the threshold”. The pKd [13, 31] was “below the threshold”, the pKd [14, 31] was “below the threshold” and the pKd [15, 31] was “below the threshold”. For the same binder, the pKd [16, 31] was “below the threshold”, the pKd [17, 31] was “below the threshold” and the pKd [18, 31] was 4.68. For the same binder, the pKd [19, 31] was “below the threshold”, the pKd [20, 31] was “below the threshold” and the pKd [21, 31] was “below the threshold”. For the same binder, the pKd [22, 31] was 4.02, the pKd [23, 31] was 4.08 and the pKd [24, 31] was “below the threshold”. For the same binder, the pKd [25, 31] was 5, the pKd [26, 31] was “below the threshold” and the pKd [27, 31] was “below the threshold”. The pKd [28, 31] was “below the threshold” and the pKd [29, 31] was “below the threshold”.
